Assay results reported in patent US20190389958A1, “ANTI-CXCR4 ANTIBODIES” (MSM Protein Technologies, Inc., priority 2017, published 2019).

Biological target: human CXCR4 (human) (UniProt P61073)
Assay: flow cytometry, IgG 10 µg/mL, CXCR4-expressing Ramos (RA1) cells

Chain of human CXCR4 (human) (P61073 whole entry): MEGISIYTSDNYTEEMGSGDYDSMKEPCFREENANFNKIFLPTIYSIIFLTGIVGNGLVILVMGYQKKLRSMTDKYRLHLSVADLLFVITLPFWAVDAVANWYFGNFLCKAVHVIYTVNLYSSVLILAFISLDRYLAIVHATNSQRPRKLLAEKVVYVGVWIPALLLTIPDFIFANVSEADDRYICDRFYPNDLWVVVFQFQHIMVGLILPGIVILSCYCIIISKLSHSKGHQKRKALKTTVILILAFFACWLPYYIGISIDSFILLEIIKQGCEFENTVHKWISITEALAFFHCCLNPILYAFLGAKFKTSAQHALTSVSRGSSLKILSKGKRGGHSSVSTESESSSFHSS

human isotypic IgG1 kappa control (Coger Sarl, Paris, France) (antibody)
MFI: 42
